What all share (assay): purified protein, by the assay type
Substrate in data set [1]: Nc1ncnc2c1ncn2[C@@H]1O[C@H](COP(=O)(O)OP(=O)(O)O)[C@@H](O)[C@H]1O
The note with it: pH 7.0.

Substrate in data set [2]: Nc1nc2c(ncn2[C@@H]2O[C@H](COP(=O)(O)OP(=O)(O)O[C@H]3O[C@H](CO)[C@@H](O)[C@H](O)[C@H]3O)[C@@H](O)[C@H]2O)c(=O)[nH]1
As to conditions: other: substrate of NPPase from rice leaves; pH 7.0; 37.0 °C.

Substrate in data set [3]: Nc1ncnc2c1ncn2[C@@H]1O[C@H](COP(=O)(O)OP(=O)(O)O[C@H]2O[C@H](CO)[C@@H](O)[C@H](O)[C@H]2O)[C@@H](O)[C@H]1O
As to conditions: pH 7.0.

Substrate in data set [4]: Cc1cn([C@H]2C[C@H](O)[C@@H](COP(=O)(O)OP(=O)(O)O[C@H]3O[C@H](CO)[C@@H](O)[C@H](O)[C@H]3O)O2)c(=O)[nH]c1=O
As to conditions: other: substrate of NPPase from rice leaves; pH 7.0; 37.0 °C.

Substrate in data set [5]: Nc1ccn([C@@H]2O[C@H](COP(=O)(O)OP(=O)(O)O[C@H]3O[C@H](CO)[C@@H](O)[C@H](O)[C@H]3O)[C@@H](O)[C@H]2O)c(=O)n1
The note with it: pH 7.0.

Substrate in data set [6]: O=[N+]([O-])c1ccc(OP(=O)(O)Oc2ccc([N+](=O)[O-])cc2)cc1
As to conditions: pH 7.0.

Substrate in data set [7]: Nc1ncnc2c1ncn2[C@@H]1O[C@H](COP(=O)(O)OP(=O)(O)OP(=O)(O)O)[C@@H](O)[C@H]1O
The note with it: pH 7.0.

Substrate in data set [8]: Nc1ncnc2c1ncn2[C@@H]1O[C@H](COP(=O)(O)OS(=O)(=O)O)[C@@H](O)[C@H]1O
The note with it: other: substrate of NPPase from rice leaves; pH 7.0; 37.0 °C.

Substrate in data set [9]: Nc1nc2c(ncn2[C@@H]2O[C@H](COP(=O)(O)OP(=O)(O)O[C@H]3O[C@H](CO)[C@@H](O)[C@H](O)[C@@H]3O)[C@@H](O)[C@H]2O)c(=O)[nH]1
As to conditions: pH 7.0.

Substrate in data set [10]: Nc1ncnc2c1ncn2[C@@H]1O[C@H](COP(=O)(O)OP(=O)(O)O[C@H]2O[C@H](CO)[C@@H](O)[C@H](O)[C@@H]2O)[C@@H](O)[C@H]1O
As to conditions: other: substrate of NPPase from barley leaves; pH 7.0.

Substrate in data set [11]: O=[N+]([O-])c1ccc(OP(=O)(O)O)cc1
The note with it: other: substrate of NPPase from barley leaves; pH 7.0.

Substrate in data set [12]: NC(=O)c1ccc[n+]([C@@H]2O[C@H](COP(=O)(O)OP(=O)(O)OC[C@H]3O[C@@H](n4cnc5c(N)ncnc54)[C@H](O)[C@@H]3O)[C@@H](O)[C@H]2O)c1
The note with it: other: substrate of NPPase from barley leaves; pH 7.0.

The mark [13] stands for this setting: other: substrate of NPPase from rice leaves, 37.0 °C.
The mark [14] stands for this setting: other: substrate of NPPase from barley leaves.

The source of these data is patent US20060242739A1, “Plant nucleotide-sugar pyrophosphatase/phosphodiesterase (nppase), method of obtaining same and use of same in the production of assay devices and in the production of transgenic plants” (Universidad Publica De Navarra, priority 2002, published 2006).

A word on the Km: it is the concentration of substrate that gives half-maximal velocity. A word on the Vmax: it is the top rate of the reaction or transport when substrate is in excess. As usually defined, the kcat/Km is the turnover number divided by the Michaelis constant.

B1: NPPase from rice leaves (Oryza sativa Japonica Group) (protein)
chain: SRPSSSLEGFQPLSKIAVHKATVDLHGSAFVSATPALLGDQGEDTEWVTVKYGWANPSADDWIAVFSPADFISGSCPNPSRYPDEPLLCTAPIKYQFANYSANYVYWGKGSIRFQLINQRYDFSFALFTGGLENPKLVAVSEAISFKNPKAPVYPRLAQGKSYDEMTVTWTSGYDISEAYPFVEWGMVVAGAAAPTRTAAGTLTFNRGSMCGEPARTVGWRDPGFIHTAFLRDLWPNKEYYYKIGHELSDGSIVWGKQYTFRAPPFPGQNSLQRIIVFGDMGKAERDGSNEFANYQPGSLNTTDRLVEDLDNYDIVFHIGDLPYANGYISQWDQFTAQVAPITAKKPYMIASGNHERDWPNTGGFFDVKDSGGECGVPAETMYYYPAENRANFWYKVDYGMFRFCIADSEHDWREGTDQYKFIEQCLSTVDRKHQPWLIFAAHRVLGYSSNWWYADQGSFEEPEGRESLQRLWQRHRVDVAFFGHVHNYERTCPMYQSQCVSGERRRYSGTMNGTIFVVAGGGGSHLSDYTSAIPKWSVFRDRDFGFVKLTAFNHSSLLFEYKKSSDGKVYDSFTVERDYRDVLSCVHDSCLPTTLAS
In the case of B1, the Km was found to be 4330 µM in [1] (setting [13]); 930 µM in data set [2]; 600 µM in [3] (setting [13]); 600 µM in [4]; 920 µM in data set [5] (setting [13]); 1300 µM in data set [6] (setting [13]). Further, the Km in data set [7] (setting [13]) was 2060 µM; in data set [8] it was 3040 µM; in data set [9] (setting [13]), 800 µM. The maximal velocity (Vmax) came to 385 µmol/min/mg in data set [1] (setting [13]); 119 µmol/min/mg in data set [2]; 183 µmol/min/mg in [3] (setting [13]); 106 µmol/min/mg in data set [4]; 107 µmol/min/mg in data set [5] (setting [13]); 191 µmol/min/mg in data set [6] (setting [13]). Besides, the maximum rate (Vmax) in data set [7] (setting [13]) was determined as 356 µmol/min/mg; in [9] (setting [13]), 129 µmol/min/mg. In addition, the kcat/Km in data set [1] (setting [13]) was determined as 100000 M⁻¹ s⁻¹; in data set [2] it was 148000 M⁻¹ s⁻¹; in data set [3] (setting [13]), 350000 M⁻¹ s⁻¹; in [4] it was 206000 M⁻¹ s⁻¹; in [6] (setting [13]), 171000 M⁻¹ s⁻¹; in [7] (setting [13]), 203000 M⁻¹ s⁻¹. Moreover, in data set [9] (setting [13]), the specificity constant (kcat/Km) stood at 190000 M⁻¹ s⁻¹.

B2: NPPase from barley leaves (Hordeum vulgare) (protein)
chain: SDGSVVWAKPYTFRAPPTPGQNSLQRIIVFGDMGKAERDGSNEFANYQPGSLNTTDRLIEDLDNYDIVFHIGDMPYANGYLSQWDQFTAQVAPISAKKPYMVASGNHERDWPNTGGFFDVKDSGGECGVPAETMYYYPAENRANFWYKVDYGMFRFCVGDSEHDWREGTPQYKFIEECLSTVDRKHQPWLIFTAHRVLGYSSNSWYADQGSFEEPEGRESLQKLWQRYRVDIAYFGHVHNYERTCPLYQSQCVNADKTHYSGTMNGTIFVVAGGGGSHLSSYTTAIPKWSIFRDHDYGFTKLTAFNHSSLLFEYMKSSDGKVYDSFTIHRDYRDVLSCVHDSCFPTTLAS
With B2, the Km was 3500 µM in data set [1] (setting [14]); 400 µM in data set [10]; 500 µM in data set [3] (setting [14]); 500 µM in [11]; 2800 µM in data set [5] (setting [14]); 300 µM in [6] (setting [14]). Besides, the Km turned out to be 3500 µM in [7] (setting [14]), 2500 µM in data set [12] and 400 µM in [9] (setting [14]).
